In patent US20110318339A1 (FABRUS, published 2011):

Legend:
[1] = target: T1, recombinant human DLL4 (Cat# 1506-D4/CF, R&D Systems) (human, UniProt Q9NR61 27-529); test: SPR (ProteOn), hDLL4 amine-coupled on chip
T1 construct: Bought protein; also called hDLL4; rHuman DLL4
Protocol: In this example, the binding affinities of selected anti-DLL4 Fabs to recombinant human DLL4 (hDLL4, Cat# 1506-D4/CF, R&D Systems) were analyzed using Surface Plasmon Resonance (SPR) (Biosensor Tools, Salt Lake City, Utah). The Fabs analyzed include germline-derived antibodies and germline-modified DLL4 antibodies. Recombinant hDLL4 was immobilized on a SPR chip using amine coupling at three different surface densities. The Fabs were serially diluted 3-fold, with an initial concentration of 1 μM. Binding studies were run on a ProteOn system using a GLM sensor chip in 10 mM HEPES, pH 7.4, 150 mM NaCl, 0.01% Tween-20, and 0.1 mg/ml BSA at 25° C. The response data from each surface was globally fit to determine the binding constants.

[2] = target: T1, recombinant human DLL4 (Cat# …); test: ELISA, DLL4 coated, Fab 25 nM
Protocol: (§1) The plate was blocked by adding 1% BSA in Tris-buffered Saline Tween (TBST) and incubating for 1 hour at room temperature followed by washing 2 times with 150 μl TBST. A Fab antibody was serially diluted in 1% BSA in PBS. A 50 μl aliquot of each serial dilution was added, in triplicate, to each well and the plate was incubated for 1 hour at room temperature followed by washing 2 times with TBST. 50 μl of either goat anti-human kappa HRP conjugated secondary antibody (Cat # A7164-1 mL, Sigma-Aldrich) or goat anti-human lambda HRP conjugated secondary antibody (Cat # L1645-1 ml, Sigma-Aldrich), diluted 1:1000 in 1% BSA in PBS, was added to each well and the plate was incubated for 30 minutes at room temperature followed by washing 3 times with 200 μl TBST. Finally, 50 μl TMB one-component reagent (Cat # TMBW-1000-01, BioFax) was added and allowed to develop for 2 minutes at room temperature. The reaction was immediately halted by the addition of 50 μl 0.5M H₂SO₄ and the absorbance at 450 nm was measured using an ELISA plate reader.

[3] = target: T1, recombinant human DLL4 (Cat# …); test: ELISA, DLL4 coated, Fab 50 nM
Protocol: (§2) In this example, an ELISA binding assay was used to assess the dose-dependent binding of Fab antibodies to recombinant human DLL4 and recombinant mouse DLL4.
as §1

[4] = target: T1, recombinant human DLL4 (Cat# …); test: ELISA, DLL4 coated, Fab 100 nM
Protocol: as §2, §1

[5] = target: T1, recombinant human DLL4 (Cat# …); test: ELISA, DLL4 coated, Fab 12.5 nM
Protocol: as §2, §1

Binder	Kd [1] [nM]	koff [1] [s⁻¹]	kon [1] [M⁻¹ s⁻¹]	ELISA absorbance at 450 nm [2] [A450]	ELISA absorbance at 450 nm [3] [A450]	ELISA absorbance at 450 nm [4] [A450]	ELISA absorbance at 450 nm [5] [A450]
Fab VH1-46_IGHD6-6*01_IGHJ1*01 S102A/S103P/S104F/H111F G56H & L6_IGKJ1*01 (Fab, V domains shown, Fab made in E. coli: VH on CH1 with His6 and Flag tags (Plasmid A), VL on kappa CL (Plasmid C); also called H: APFF G56H & L: wt) VH: QVQLVQSGAEVKKPGASVKVSCKASGYTFTSYYMHWVRQAPGQGLEWMGIINPSGHSTSYAQKFQGRVTMTRDTSTSTVYMELSSLRSEDTAVYYCAREEYAPFSAEYFQFWGQGTLVTVSS VL: not shown	32.7	0.0101	351000				
Fab VH5-51_IGHD5-18*01>3_IGHJ4*01 & V3-4_IGLJ1*01 (Fab, V domains shown, Fab made in E. coli: VH on CH1 with His6 and Flag tags (Plasmid A), VL on lambda CL (Plasmid E); also called wildtype; parent) VH: EVQLVQSGAEVKKPGESLKISCKGSGYSFTSYWIGWVRQMPGKGLEWMGIIYPGDSDTRYSPSFQGQVTISADKSISTAYLQWSSLKASDTAMYYCARRGYSYGYDYFDYWGQGTLVTVSS VL: QTVVTQEPSFSVSPGGTVTLTCGLSSGSVSTSYYPSWYQQTPGQAPRTLIYSTNTRSSGVPDRFSGSILGNKAALTITGAQADDESDYYCVLYMGSGISYVFGTGTKVTVL				0.18	0.16	0.17	0.17
Fab VH5-51_IGHD5-18*01>3_IGHJ4*01 G100K/G104T G24T/S28R/G35V & V3-4_IGLJ1*01 V91L/S96P S52F (Fab, V domains shown, Fab made in E. coli: VH on CH1 with His6 and Flag tags (Plasmid A), VL on lambda CL (Plasmid E); also called H: KT TRV & L: LP S52F) VH: EVQLVQSGAEVKKPGESLKISCKTSGYRFTSYWIVWVRQMPGKGLEWMGIIYPGDSDTRYSPSFQGQVTISADKSISTAYLQWSSLKASDTAMYYCARRKYSYTYDYFDYWGQGTLVTVSS VL: QTVVTQEPSFSVSPGGTVTLTCGLSSGSVSTSYYPSWYQQTPGQAPRTLIYFTNTRSSGVPDRFSGSILGNKAALTITGAQADDESDYYCLLYMGPGISYVFGTGTKVTVL				0.49	0.69	0.99	0.42
Fab VH5-51_IGHD5-18*01>3_IGHJ4*01 G100K/G104T G24T/S28R/G35V & V3-4_IGLJ1*01 V91L/S96P S52I (Fab, V domains shown, Fab made in E. coli: VH on CH1 with His6 and Flag tags (Plasmid A), VL on lambda CL (Plasmid E); also called H: KT TRV & L: LP S52I) VH: EVQLVQSGAEVKKPGESLKISCKTSGYRFTSYWIVWVRQMPGKGLEWMGIIYPGDSDTRYSPSFQGQVTISADKSISTAYLQWSSLKASDTAMYYCARRKYSYTYDYFDYWGQGTLVTVSS VL: QTVVTQEPSFSVSPGGTVTLTCGLSSGSVSTSYYPSWYQQTPGQAPRTLIYITNTRSSGVPDRFSGSILGNKAALTITGAQADDESDYYCLLYMGPGISYVFGTGTKVTVL				0.6	0.82	1.04	0.4
Fab VH5-51_IGHD5-18*01>3_IGHJ4*01 G100K/G104T G24T/S28R/G35V & V3-4_IGLJ1*01 V91L/S96P S52H (Fab, V domains shown, Fab made in E. coli: VH on CH1 with His6 and Flag tags (Plasmid A), VL on lambda CL (Plasmid E); also called H: KT TRV & L: LP S52H) VH: EVQLVQSGAEVKKPGESLKISCKTSGYRFTSYWIVWVRQMPGKGLEWMGIIYPGDSDTRYSPSFQGQVTISADKSISTAYLQWSSLKASDTAMYYCARRKYSYTYDYFDYWGQGTLVTVSS VL: QTVVTQEPSFSVSPGGTVTLTCGLSSGSVSTSYYPSWYQQTPGQAPRTLIYHTNTRSSGVPDRFSGSILGNKAALTITGAQADDESDYYCLLYMGPGISYVFGTGTKVTVL				0.73	0.91	1.09	0.5
Fab VH5-51_IGHD5-18*01>3_IGHJ4*01 G100K/G104T G24T/S28R/G35V & V3-4_IGLJ1*01 V91L/S96P S52K (Fab, V domains shown, Fab made in E. coli: VH on CH1 with His6 and Flag tags (Plasmid A), VL on lambda CL (Plasmid E); also called H: KT TRV & L: LP S52K) VH: EVQLVQSGAEVKKPGESLKISCKTSGYRFTSYWIVWVRQMPGKGLEWMGIIYPGDSDTRYSPSFQGQVTISADKSISTAYLQWSSLKASDTAMYYCARRKYSYTYDYFDYWGQGTLVTVSS VL: QTVVTQEPSFSVSPGGTVTLTCGLSSGSVSTSYYPSWYQQTPGQAPRTLIYKTNTRSSGVPDRFSGSILGNKAALTITGAQADDESDYYCLLYMGPGISYVFGTGTKVTVL				0.79	1.03	1.23	0.56

Continued, values first:

Kd [1] [nM]	koff [1] [s⁻¹]	kon [1] [M⁻¹ s⁻¹]	ELISA absorbance at 450 nm [2] [A450]	ELISA absorbance at 450 nm [3] [A450]	ELISA absorbance at 450 nm [4] [A450]	ELISA absorbance at 450 nm [5] [A450]	Binder
			0.86	0.9	1.05	0.65	Fab VH5-51_IGHD5-18*01>3_IGHJ4*01 G100K/G104T G24T/S28R/G35V & V3-4_IGLJ1*01 V91L/S96P S52N (Fab, V domains shown, Fab made in E. coli: VH on CH1 with His6 and Flag tags (Plasmid A), VL on lambda CL (Plasmid E); also called H: KT TRV & L: LP S52N) VH: EVQLVQSGAEVKKPGESLKISCKTSGYRFTSYWIVWVRQMPGKGLEWMGIIYPGDSDTRYSPSFQGQVTISADKSISTAYLQWSSLKASDTAMYYCARRKYSYTYDYFDYWGQGTLVTVSS VL: QTVVTQEPSFSVSPGGTVTLTCGLSSGSVSTSYYPSWYQQTPGQAPRTLIYNTNTRSSGVPDRFSGSILGNKAALTITGAQADDESDYYCLLYMGPGISYVFGTGTKVTVL
			0.59	0.79	1	0.43	Fab VH5-51_IGHD5-18*01>3_IGHJ4*01 G100K/G104T G24T/S28R/G35V & V3-4_IGLJ1*01 V91L/S96P S52P (Fab, V domains shown, Fab made in E. coli: VH on CH1 with His6 and Flag tags (Plasmid A), VL on lambda CL (Plasmid E); also called H: KT TRV & L: LP S52P) VH: EVQLVQSGAEVKKPGESLKISCKTSGYRFTSYWIVWVRQMPGKGLEWMGIIYPGDSDTRYSPSFQGQVTISADKSISTAYLQWSSLKASDTAMYYCARRKYSYTYDYFDYWGQGTLVTVSS VL: QTVVTQEPSFSVSPGGTVTLTCGLSSGSVSTSYYPSWYQQTPGQAPRTLIYPTNTRSSGVPDRFSGSILGNKAALTITGAQADDESDYYCLLYMGPGISYVFGTGTKVTVL
			0.62	0.79	0.99	0.41	Fab VH5-51_IGHD5-18*01>3_IGHJ4*01 G100K/G104T G24T/S28R/G35V & V3-4_IGLJ1*01 V91L/S96P S52T (Fab, V domains shown, Fab made in E. coli: VH on CH1 with His6 and Flag tags (Plasmid A), VL on lambda CL (Plasmid E); also called H: KT TRV & L: LP S52T) VH: EVQLVQSGAEVKKPGESLKISCKTSGYRFTSYWIVWVRQMPGKGLEWMGIIYPGDSDTRYSPSFQGQVTISADKSISTAYLQWSSLKASDTAMYYCARRKYSYTYDYFDYWGQGTLVTVSS VL: QTVVTQEPSFSVSPGGTVTLTCGLSSGSVSTSYYPSWYQQTPGQAPRTLIYTTNTRSSGVPDRFSGSILGNKAALTITGAQADDESDYYCLLYMGPGISYVFGTGTKVTVL
			0.56	0.72	0.9	0.41	Fab VH5-51_IGHD5-18*01>3_IGHJ4*01 G100K/G104T G24T/S28R/G35V & V3-4_IGLJ1*01 V91L/S96P S52Y (Fab, V domains shown, Fab made in E. coli: VH on CH1 with His6 and Flag tags (Plasmid A), VL on lambda CL (Plasmid E); also called H: KT TRV & L: LP S52Y) VH: EVQLVQSGAEVKKPGESLKISCKTSGYRFTSYWIVWVRQMPGKGLEWMGIIYPGDSDTRYSPSFQGQVTISADKSISTAYLQWSSLKASDTAMYYCARRKYSYTYDYFDYWGQGTLVTVSS VL: QTVVTQEPSFSVSPGGTVTLTCGLSSGSVSTSYYPSWYQQTPGQAPRTLIYYTNTRSSGVPDRFSGSILGNKAALTITGAQADDESDYYCLLYMGPGISYVFGTGTKVTVL
			0.6	0.74	0.95	0.43	Fab VH5-51_IGHD5-18*01>3_IGHJ4*01 G100K/G104T G24T/S28R/G35V & V3-4_IGLJ1*01 V91L/S96P S52V (Fab, V domains shown, Fab made in E. coli: VH on CH1 with His6 and Flag tags (Plasmid A), VL on lambda CL (Plasmid E); also called H: KT TRV & L: LP S52V) VH: EVQLVQSGAEVKKPGESLKISCKTSGYRFTSYWIVWVRQMPGKGLEWMGIIYPGDSDTRYSPSFQGQVTISADKSISTAYLQWSSLKASDTAMYYCARRKYSYTYDYFDYWGQGTLVTVSS VL: QTVVTQEPSFSVSPGGTVTLTCGLSSGSVSTSYYPSWYQQTPGQAPRTLIYVTNTRSSGVPDRFSGSILGNKAALTITGAQADDESDYYCLLYMGPGISYVFGTGTKVTVL
			0.67	0.81	0.96	0.47	Fab VH5-51_IGHD5-18*01>3_IGHJ4*01 G100K/G104T G24T/S28R/G35V & V3-4_IGLJ1*01 V91L/S96P S52Q (Fab, V domains shown, Fab made in E. coli: VH on CH1 with His6 and Flag tags (Plasmid A), VL on lambda CL (Plasmid E); also called H: KT TRV & L: LP S52Q) VH: EVQLVQSGAEVKKPGESLKISCKTSGYRFTSYWIVWVRQMPGKGLEWMGIIYPGDSDTRYSPSFQGQVTISADKSISTAYLQWSSLKASDTAMYYCARRKYSYTYDYFDYWGQGTLVTVSS VL: QTVVTQEPSFSVSPGGTVTLTCGLSSGSVSTSYYPSWYQQTPGQAPRTLIYQTNTRSSGVPDRFSGSILGNKAALTITGAQADDESDYYCLLYMGPGISYVFGTGTKVTVL
			0.58	0.78	1.02	0.43	Fab VH5-51_IGHD5-18*01>3_IGHJ4*01 G100K/G104T G24T/S28R/G35V & V3-4_IGLJ1*01 V91L/S96P S52L (Fab, V domains shown, Fab made in E. coli: VH on CH1 with His6 and Flag tags (Plasmid A), VL on lambda CL (Plasmid E); also called H: KT TRV & L: LP S52L) VH: EVQLVQSGAEVKKPGESLKISCKTSGYRFTSYWIVWVRQMPGKGLEWMGIIYPGDSDTRYSPSFQGQVTISADKSISTAYLQWSSLKASDTAMYYCARRKYSYTYDYFDYWGQGTLVTVSS VL: QTVVTQEPSFSVSPGGTVTLTCGLSSGSVSTSYYPSWYQQTPGQAPRTLIYLTNTRSSGVPDRFSGSILGNKAALTITGAQADDESDYYCLLYMGPGISYVFGTGTKVTVL
